By Kd is commonly meant a measure of binding affinity in units of concentration.

Data on 18 molecules can be found in PMC6643034 (2019).

First the molecules themselves.
T1: CXCL7 (human)
T1 chain: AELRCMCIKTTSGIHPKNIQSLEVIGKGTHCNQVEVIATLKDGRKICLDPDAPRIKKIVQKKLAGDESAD

B1: P1126 (natural protein)
chain: DGGKPQILQRTDKSTDSEWDPQTCPETCIPSKNITCSDGCVCVKLGEEEEGTCFNMTGVDWLGSPSDD
modifications: also: glycosylated
B2: P1142 (natural protein)
chain: DGGKPQILQRTDHSTDSDWDPQMCPETCNPSKNISCSSECLCVTLGGGDETGTCFNMSGVDWLGHAQASDGHNDGGGASAWSHPQFEKLEHHHHHHHH
modifications: glycosylated (periodic acid–Schiff staining)
B3: P1086_IXORI (natural protein)
chain: GSKGQRASQVSETSITAEFCDTSCTQGTDKTWSGCSGDCFCVHVGNDTEGRCMRWDGDYPSAEEEE
B4: P1080_IXORI (natural protein)
chain: SAGSKGSSAPQSSGDSVVAEFCDTNCTMKKDGKWTECNGDCFCVHVGNETVGRCMRLDGDYDYTSSKTTRRNKKTRNGLCRLDRNRTTVDYPERNTREP
B5: P675 (natural protein)
chain: GSNQLSGPQSSANSNDAVFCDTNCTQGTDGAWSGCRGDCFCVHVGNSTEGRCIELIGDFDYSTPGAED
modifications: also: glycosylated
B6: P1124_IXORI (natural protein)
chain: DSKGTSDSQDSTKSIKVDFCETNCTKTDGGWTGCTGDCICVSVGDSIEGRCMDFG
B7: P1090_IXORI (natural protein)
chain: GSKELSGPESSENSIEAAFCDTNCTEGTDGVWSGCSAGCFCVHVGNSTVGRCMTFNGVD
B8: P942 (natural protein)
chain: DGGNQLSGPQSSANSNEAVFCDTNCTQGTDEAWSGCRGDCFCVYVGNSTEGRCMMLSGDFDYSTPGAED
modifications: also: glycosylated
B9: Evasin 3 (EVA3) (natural protein)
chain: DGGLVSTIESRTSGDGADNFDVVSCNKNCTSGQNECPEGCFCGLLGQNKKGHCYKIIGNLSGEPPVVRR
modifications: also: glycosylated
B10: P1104 (natural protein)
chain: ESKEASASQGPGKSFKVEFCETNCTENNGVWSGCTGDCICVSVGDSKEGRCMDLGDKVIDTPVAQG
modifications: also: glycosylated
B11: P1100_IXORI (natural protein)
chain: GSKGSSASQSSDNSVVAKFCDTNCTINEGGKWTECKGGCFCVHVGNETVGRCMKLDGDYDYPSPKPEE
B12: P1078_IXORI (natural protein)
chain: GSKGSSAQQSSHDSIKAEFCETNCTMKTGGKWTQCHGGCFCVHVGNETVGRCIKLDGDYDYPSSKHEE
B13: CXCL11 (ligand)
chain: FPMFKRGRCLCIGPGVKAVKVADIEKASIMYPSNNCDKIEVIITLKENKGQRCLNPKSKQARLIIKKVERKNF
B14: CXCL13 (ligand)
chain: VLEVYYTSLRCRCVQESSVFIPRRFIDRIQILPRGNGCPRKEIIVWKKNKSIVCVDPQAEWIQRMMEVLRKRSSSTLPVPVFKRKIP
B15: CXCL4 (ligand)
chain: EAEEDGDLQCLCVKTTSQVRPRHITSLEVIKAGPHCPTAQLIATLKNGRKICLDLQAPLYKKIIKKLLES
B16: P1172_IXORI (natural protein)
chain: FLLKSQLCYCLFGIELIGAGIHALHEDEIFTVDYCGTNCTKQSNGSWTTCPGNCSCYHEDGKTDGFCLSTEYTDFTQFPNLTSEEMDAATPRPE
B17: P1134 (natural protein)
chain: NEEVFTVEYCGMNCTQKSDGTWTECSGKNKDCRCYHESDAREGLCLSTEYTDFSQFETPSNSDLEAATPRPRKTLYPVRNPHGPKTRGLGYDKRILRDRVKFLI
modifications: glycosylated (periodic acid–Schiff staining)
B18: P1170_IXORI (natural protein)
chain: LGDEDQLFSVEYCGTNCTQQDDGKWTPCSGKNGKCKCYHEDGKRYGLCLYTEYTDFSQYPNPEGSEIENTRPRP

Sequence of CXCL8 (human) (chain, as listed by the source): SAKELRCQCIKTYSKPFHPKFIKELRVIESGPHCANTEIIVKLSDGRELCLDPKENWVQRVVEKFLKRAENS

One test addresses T1, CXCL7. Kind of test: BLI. For orientation: In BLI a coated tip is dipped into the sample, and binding shifts an interference pattern.
In turn, B1 had a Kd of 6.05 nM.
Consider B2, for which the Kd was determined as 1.83 nM.

Another test has as its target CXCL3 (human, UniProt P19876 35-107). Nature of the test: BLI.
For the molecule B3, the Kd is 15.2 nM.
B4 came in with a Kd of 124 nM. This Kd is about 8.2-fold higher than that of the molecule before.
B5 gave a Kd of 35.7 nM.
On the same count and under the same terms, the same measure for B1: 13.3 nM; for B6: 8.84 nM.
Still for that read-out and setting: under B7 stands 7.67 nM.
Same read-out and setting: under B2 stands 5.65 nM; under B8, 5.04 nM.
In turn, B9 gave a dissociation constant Kd of 7.37 nM.
Molecule B10 displayed an equilibrium dissociation constant (Kd) of 43.7 nM.
On the same count and under the same terms, the same measure for B11: 55.9 nM; for B12: 43.8 nM.

Another test addresses P1074_IXORI (Ixodes ricinus, UniProt A0A0K8RDH6 29-96). Kind of test: BLI.
In turn, B13 displayed an equilibrium dissociation constant (Kd) of 12 nM.
On the same count and under the same terms, under B14 stands 95.8 nM.
Still for that read-out and setting: under B15 stands 157 nM.

A further test concerns the target CXCL6 (human). Kind of test: BLI.
In turn, B4 had a Kd of 61 nM.
On the same count and under the same terms, the same measure for B1: 9.12 nM; for B7: 2.82 nM.
Still for that read-out and setting: the same measure for B2: 6.27 nM; for B8: 7.28 nM; for B9: 1.03 nM.
Take B10: the equilibrium dissociation constant (Kd) amounted to 34.3 nM.
Still for that read-out and setting: the same measure for B11: 15.2 nM.

Another test addresses B15. Nature of the test: BLI.
In turn, B4 displayed a Kd of 2310 nM.
Molecule B5 displayed a Kd of 422 nM. Against the preceding molecule, the Kd is about 5.5-fold lower.
On the same count and under the same terms, under B1 stands 393 nM.
Still for that read-out and setting: the same measure for B2: 381 nM; for B8: 148 nM.

For the next test, the target named is CXCL12 (human, UniProt P48061 22-93). Nature of the test: BLI.
In turn, B6 came in with a dissociation constant (Kd) of 212 nM.
On the same count and under the same terms, the same measure for B10: 67.8 nM.

A further test has as its target CXCL2 (human, UniProt P19875 35-107). Nature of the test: BLI.
Molecule B5 showed a dissociation constant Kd of 24.8 nM.
Take B1: binding was put at a Kd of 5.11 nM.
For the molecule B6, the dissociation constant (Kd) came out at 13.8 nM.
Same read-out and setting: under B7 stands 3.03 nM; under B2, 2.14 nM.
On the same count and under the same terms, the same measure for B8: 6.48 nM; for B16: 26 nM; for B9: 7.49 nM.
B10 gave a dissociation constant Kd of 82.3 nM.
The same measure, in the same setting: under B12 stands 68.3 nM.

The target in the next test is B14. Nature of the test: BLI.
B4 showed an equilibrium dissociation constant (Kd) of 1110 nM.
The same measure, in the same setting: the same measure for B5: 582 nM; for B6: 256 nM; for B7: 12.5 nM.
Still for that read-out and setting: the same measure for B8: 39.5 nM.
Still for that read-out and setting: the same measure for B10: 220 nM.
In the case of B12, the dissociation constant Kd is 255 nM.

The target of a further test is CXCL1 (human, UniProt P09341 35-107). Nature of the test: BLI.
For B17, the Kd was determined as 27.3 nM.
As for B18, binding was characterised by a dissociation constant (Kd) of 59.6 nM.
Regarding B5, binding was characterised by a dissociation constant (Kd) of 9.99 nM.
Take B1: the equilibrium dissociation constant (Kd) was found to be 10.5 nM.
On the same count and under the same terms, the same measure for B6: 7.61 nM; for B7: 3.55 nM; for B2: 4.61 nM.
Same read-out and setting: the same measure for B8: 3.09 nM.
Consider B16, for which the affinity, expressed as Kd, was 5.59 nM. This Kd is about 1.8-fold higher than that of the molecule before.
Same read-out and setting: the same measure for B9: 5.73 nM; for B10: 14.4 nM.
The same measure, in the same setting: under B11 stands 49.9 nM.
Turning to B12, the Kd turned out to be 6.35 nM.

The next test deals with CXCL5 (human). Kind of test: BLI.
In turn, B4 registered a Kd of 55.1 nM.
The same measure, in the same setting: the same measure for B5: 34.2 nM; for B1: 12.1 nM.
B6: binding was put at a Kd of 26.4 nM.
Take B7: binding was characterised by a dissociation constant (Kd) of 43 nM. Compared with the last molecule, the Kd is about 1.6-fold higher.
The same measure, in the same setting: under B2 stands 9.81 nM; under B8, 21.1 nM; under B16, 59.3 nM.
Still for that read-out and setting: the same measure for B9: 24.9 nM.
The molecule B10 gave a Kd of 24.5 nM. This Kd and that of the molecule before are within 1.5-fold of each other.
For the molecule B11, the Kd is 50.8 nM. This Kd lies about 2.1-fold higher than the previous one.
As to B12, the dissociation constant (Kd) is 39.2 nM.

A further test concerns the target CXCL8 (human). Kind of test: BLI.
Molecule B18 registered a Kd of 12.3 nM. That is a double-digit nanomolar value.
Turning to B16, binding was put at a Kd of 26.7 nM.
The same measure, in the same setting: the same measure for B9: 2.57 nM.

Another test deals with CXC-motif chemokine ligand 10 (CXCL10) (human, UniProt P02778 22-98). Nature of the test: BLI.
Consider B3, for which the Kd was determined as 18.7 nM.
The same measure, in the same setting: the same measure for B4: 1260 nM; for B5: 3120 nM; for B1: 7.9 nM.
Still for that read-out and setting: under B7 stands 23.9 nM.
The same measure, in the same setting: under B2 stands 7.46 nM; under B8, 133 nM.
As for B11, the dissociation constant (Kd) is 380 nM.

The next test has as its target B13. Kind of test: BLI.
With B5, binding was characterised by a dissociation constant (Kd) of 7.73 nM.
Molecule B1 had a Kd of 394 nM. Compared with the last molecule, the Kd is about 51-fold higher.
Consider B7, for which binding was put at a Kd of 3.85 nM.
For B2, binding was put at a Kd of 322 nM.
Same read-out and setting: under B8 stands 12.4 nM; under B11, 102 nM.
Still for that read-out and setting: under B12 stands 16.7 nM.
